Results on 8 molecules are retold here after publication PMC9520026, “Densely methylated DNA traps Methyl-CpG–binding domain protein 2 but permits free diffusion by Methyl-CpG–binding domain protein 3”.

Data set [1] has as its target T1, MBD3sc (human, UniProt O95983 1-249+Q86YP4:137-178, internal_change). Nature of the data set: fluorescence anisotropy; FA: 50 mM Hepes pH 7.5, 100 mM NaCl, 1 mM MgCl2, 10 nM DNA, temperature not stated; SPR: 50 mM Hepes pH 7.5, 150 mM NaCl, 1 mM MgCl2, 1 mM TCEP, 0.05% Tween-20; NMR: 10 mM NaPO4 pH 6.5, 150 mM NaCl, 1 mM DTT, 10% 2H2O, 25 C. The settings on record: protein: recombinant; tags: N-terminal thioredoxin-His6-TEV site (removal stated only for NMR); label: 5' 6-FAM on strand 1; blunt.

In data set [2] the target is T2, MBD2sc (human, UniProt Q9UBB5 150-393+Q86YP4:137-178, internal_change). Described as above. The settings on record: protein: recombinant; tags: N-terminal thioredoxin-His6-TEV site (removal stated only for NMR); label: 5' 6-FAM on strand 1; blunt.
Data set [3] concerns the target T3, MBD2sc (2H,15N, tag cleaved) (human, UniProt Q9UBB5 150-393+Q86YP4:137-178, internal_change). Nature of the data set: NMR; FA: 50 mM Hepes pH 7.5, 100 mM NaCl, 1 mM MgCl2, 10 nM DNA, temperature not stated; SPR: 50 mM Hepes pH 7.5, 150 mM NaCl, 1 mM MgCl2, 1 mM TCEP, 0.05% Tween-20; NMR: 10 mM NaPO4 pH 6.5, 150 mM NaCl, 1 mM DTT, 10% 2H2O, 25 C. The note with it: protein: recombinant; tags: none (thioredoxin-His6 removed by TEV); blunt.

For data set [4], the target named is T3, MBD2sc (2H,15N, tag cleaved). The data set can be described thus: NMR; fast exchange between both sites; FA: 50 mM Hepes pH 7.5, 100 mM NaCl, 1 mM MgCl2, 10 nM DNA, temperature not stated; SPR: 50 mM Hepes pH 7.5, 150 mM NaCl, 1 mM MgCl2, 1 mM TCEP, 0.05% Tween-20; NMR: 10 mM NaPO4 pH 6.5, 150 mM NaCl, 1 mM DTT, 10% 2H2O, 25 C. The settings on record: protein: recombinant; tags: none (thioredoxin-His6 removed by TEV); blunt.

The target in data set [5] is T1, MBD3sc. The data set can be described thus: SPR; FA: 50 mM Hepes pH 7.5, 100 mM NaCl, 1 mM MgCl2, 10 nM DNA, temperature not stated; SPR: 50 mM Hepes pH 7.5, 150 mM NaCl, 1 mM MgCl2, 1 mM TCEP, 0.05% Tween-20; NMR: 10 mM NaPO4 pH 6.5, 150 mM NaCl, 1 mM DTT, 10% 2H2O, 25 C. The note with it: protein: recombinant; tags: N-terminal thioredoxin-His6-TEV site (removal stated only for NMR); blunt. A general note: Surface plasmon resonance follows binding to a sensor surface in real time, without labels.

The target of data set [6] is T2, MBD2sc. The data set is described as above. The settings on record: protein: recombinant; tags: N-terminal thioredoxin-His6-TEV site (removal stated only for NMR); blunt.

Usually Kd stands for a measure of binding affinity in units of concentration.

T1 sequence (O95983 other isoform, or with tags, fused parts or gaps): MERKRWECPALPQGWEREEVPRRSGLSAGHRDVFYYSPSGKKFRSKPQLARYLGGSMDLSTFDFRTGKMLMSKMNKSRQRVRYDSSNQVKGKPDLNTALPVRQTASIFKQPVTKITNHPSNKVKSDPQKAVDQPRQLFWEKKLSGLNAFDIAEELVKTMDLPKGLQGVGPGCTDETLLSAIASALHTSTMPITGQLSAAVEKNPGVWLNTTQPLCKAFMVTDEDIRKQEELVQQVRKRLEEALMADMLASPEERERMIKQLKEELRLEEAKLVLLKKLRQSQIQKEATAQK
T2 sequence (Q9UBB5 other isoform, or with tags, fused parts or gaps): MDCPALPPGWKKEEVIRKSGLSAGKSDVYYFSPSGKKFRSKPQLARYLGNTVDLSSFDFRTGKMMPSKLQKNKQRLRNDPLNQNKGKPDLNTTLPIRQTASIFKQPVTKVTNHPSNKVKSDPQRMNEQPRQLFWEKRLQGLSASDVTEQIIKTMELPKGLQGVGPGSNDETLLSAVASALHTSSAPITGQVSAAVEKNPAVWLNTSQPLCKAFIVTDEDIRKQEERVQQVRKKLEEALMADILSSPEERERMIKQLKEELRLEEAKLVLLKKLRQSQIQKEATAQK
T3 sequence (Q9UBB5 other isoform, or with tags, fused parts or gaps): as above

B1: 17 bp CpG FAM (unmethylated) (dsDNA)
DNA 1: CTGCCGCCGAGCGCCTC
DNA 2: GAGGCGCTCGGCGGCAG
With B1, the figures for the Kd in data set [1] and in data set [2] were 8.1 ± 0.4 µM and 2.8 ± 0.1 µM, respectively.

B2: 38 bp, first CpG methylated (dsDNA)
DNA 1: GGAGGCGCTCGGCGGCAGCCTGGAACGGAATTCTTCTA
DNA 2: TAGAAGAATTCCGTTCCAGGCTGCCGCCGAGCGCCTCC
modifications: 5-methylcytosine at C10 of strand 1 and C28 of strand 2
Turning to B2, the binding result in data set [3] is recorded as “binds”.

B3: 38 bp, second CpG methylated (dsDNA)
DNA 1: B2 DNA 1
DNA 2: B2 DNA 2
modifications: 5-methylcytosine at C26 of strand 1 and C12 of strand 2
As to B3, the binding result in data set [3] is “binds”.

B4: 38 bp, both CpG methylated (dsDNA)
DNA 1: B2 DNA 1
DNA 2: B2 DNA 2
modifications: 5-methylcytosine at C10, C26 of strand 1 and C12, C28 of strand 2
In the case of B4, the binding result in data set [4] is recorded as “binds”.

B5: 17 bp mCpG FAM (dsDNA)
DNA 1: CTGCCGCCGAGCGCCTC
DNA 2: GAGGCGCTCGGCGGCAG
modifications: 5-methylcytosine at C8 of strand 1 and C9 of strand 2 (symmetric)
On to B5, for which the figures for the Kd in data set [1] and in data set [2] were 5.9 ± 0.4 µM and 0.007 ± 0.002 µM, respectively.

B6: 17 bp CpG biotin (SPR) (dsDNA)
DNA 1: CTGCCGCCGAGCGCCTC
DNA 2: GAGGCGCTCGGCGGCAG
With B6, the figures for the Kd in data set [5] and in data set [6] were 1.02 ± 0.01 µM and 1.24 ± 0.08 µM, respectively.

B7: 17 bp mCpG biotin (SPR) (dsDNA)
DNA 1: CTGCCGCCGAGCGCCTC
DNA 2: GAGGCGCTCGGCGGCAG
modifications: 5-methylcytosine at C8 of strand 1 and C9 of strand 2
For the molecule B7, the figures for the Kd in data set [5] and in data set [6] were 1.2 ± 0.2 µM and 0.011 ± 0.001 µM, respectively.

B8: 17 bp CpG-free FAM (dsDNA)
DNA 1: CTGGCCCCAGGGCCCTC
DNA 2: GAGGGCCCTGGGGCCAG
With B8, the equilibrium dissociation constant (Kd) in data set [1] was 14.2 ± 0.3 µM; in data set [2], 9.1 ± 0.4 µM.
